Among the data in a protein production outcome set (Wang et al. 2014) are protein production values, retold here.

The data set is described as follows: label from the status in PepcDB records.

Take “MVETLGAIAPVFLIILVGFLLRRWKVLSDGFWLPAEKLTYFITFPALLAANLAGADLRGVAWAPVAAVSVGGIFLIAALMLAARSLLARRLAIGDPAFTSVFQGAIRPNTYIGLALATVLFGPFGVTLMALCIAIVVPLVNVLAVACMVRFGHGQSASLSAMARGIATNPLILACLVGIAMNIGGLGLPPVLGPALTILGSAALPIGLLAVGAGLSGVGLRRAAPALLVSSAAKLVLLPGLTLIGALALGMDAPTTALCVLYAALPCSQSSYVLARQMGGDATLMATAITVQTLLSGLSIPVFVLALV”: the protein production entry is “failed”.
Under “MVEVTIWLAFFAGVVSFLSPCVFPLVPVYLAQLTGTQISGNEITADRKLILMRSLGFILGFTSIFIFLGASSTFIGQLFWGNRQLFEQIGGIIITVFGLQMMGVISIRMLLSEKRLQAKPRQSASFANSVLIGFLFATGWTPCIGLVLGAILVLAGDANTMWSGMSMLFVYSMGLAIPFFLVALLWSRSLHKVRKLNKWLPTIQKGSGVVMVALGVLLFTGQFSTIAAYLARINPFGI” stands “failed”; under “MVFGPGLCIAHRGTIVVNKGARVGENCRIHACTNIGSGRDNIFLAPKIGNGVYIGPGAKIFGSVEIADNIAIGANSVVNRSFYERGISIAGVPAKKISNKGSDGMVIAATKTVSVPVSQETILEHHHHHH”, “failed”.
As for “MVFLIVPILTILGLSIHEAIGTSLACIAISSFSSAYTHLKKGKVHIKVVILKELFSIPAAVLGAYLTNDINEKILRVAFSMLLFYLAVRLTVKRRAKDSKEAKIHYERVPLVGVASGFLSGLLGISGGILNVPLFTIFVGIPIKYSIGTSSLALFFTALAGAITHLKEGNVVLSIALALAPGLIVGAYVGAIVSHRIHSDKLRVLFSALLLIIGVRMLV”, the protein production entry is given as “failed”.
Consider “MVFSMHDKGETQENPADMSGRLNTPISTVFHFFSSLFHDALRSVAQWSAWKKIAVSVVIVAIISVTFLVDVPPISVYRDWANNAGDAFVLVFCAFYILITQFPIPRTVLTLASGVLFGPVLGSVVALGSTTVSAVISLLIVRGLLGDWMAPRLTHPAVSRINTRLEQRGWLAITSLRMIAAIPFSILNYVAALTSVPVFSFAIATLIGSAPGTIVTVVLGDAVTGSGNWTAVAFTVFLAILGVLGIFLDQKMPVKPGK”, for which the protein production entry is recorded as “failed”.
Under “MVFSNSLLSSTTSLTTWANQSSSQSSLSPRYSTWQCVCLRNQKRKPKLYLIPARHFLSTPIDSVSSSSITASRYATSGVSEVQRSTSSNNVTEMEEFEMELQELFNEVKSMVKIGKESDAMDLLRANYVAVKEELDSGLKGIEQAAVLDIIALGYMAVGDLKPVPALLDMINKIVDNLKDSEPLLDSVLMHVGSMYSVIGKFENAILVHQRAIRILENRYGKCNTLLVTPLLGMAKSFASDGKATKAIGVYERTLTILERNRGSESEDLVVPLFSLGKLLLKEGKAAEAEIPFTSIVNIYKKIYGERDGRVGMAMCSLANAKCSKGDANEAVDIYRNALRIIKDSNYMTIDNSILENMRIDLAELLHFVGRGDEGRELLEECLLINERFKGKNHPSMATHLINLAASYSRSKNYVEAERLLRTCLNIMEVSVGSEGQSITFPMLNLAVTLSQLNRDEEAEQIALKVLRIREKAFGEDSLPVGEALDCLVSIQARLGRDDGEILGLLKRVMMIQEKEFGPSAQELIVTLQKIIHFLEKLEMKDDKFKFRRRLALLRERYKQSLSY” stands “failed”; under “MVGINTDTENISELLKTYWSIQRISAGYADQNAASLGLTIQQLAMINVIYSTPGISVADLTKRLIITGSSAAANVDGLISLGLVVKLNKTIPNDSMDLTLKLSKKGEDLSKRSTANAFMYKAMMKVFENLTENEIEELIRLNKKVETLLKKSK”, “not failed”.
“MVGLADVAVLYSGGKDSNYALYWALKSGLRVRYLVSMVSENEESYMYHTPNVELTSLQARALGIPIIKGFTKGEKEKEVEDLKNVLEGLKVDGIVAGALASRYQKERIENVARELGLKVYTPAWEKDPYQYMLEIIKLGFKVVFVAVSAYGLNESWLGRELNYKNLEELKKLSEKYGIHIAGEGGEFETFVLDMPFFKAKIVIDDAEKFWDGLSGKFIIKRAHLEWK”: the protein production result is “not failed”.
Under “MVGQREPAPVEEVKPAPEQPAEPQQPVPTVPSVPTIPQQPGPIEHEDQTAPPAPHIRHYDWNGAMQPMVSKMLGADGVTAGSVLLVDSVNNRTNGSLNAAEATETLRNALANNGKFTLVSAQQLSMAKQQLGLSPQDSLGTRSKAIGIARNVGAHYVLYSSASGNVNAPTLQMQLMLVQTGEIIWSGKGAVSQQLEHHHHHH” stands “not failed”; under “MVHCADQGMARAARDLAGALIASSAVLYNQFDAWSRSHAAALEAVRRGGDTEGEAWLLTGLGQLRYEQDKFEESYAYFADALRLFDERGDVPRGAALSLAGMGSARREQARFAEALQLLSSALERYEQTDDVGARARVLYGIGYVHREQGRGAQAWEALSGALGLYRTASDRHGEALTLRSLALCRRADGAWADAERLLHEALRIFVGLQDTFGVMYTEQSLAKVELRRGHLEKARERLGRCLEVARERQDRFGEALVLRTLGEWCLAAGETERAREPLERALAAWEALDLPLWGARTAWDLAEVSASRATNRRRGQPARRRWRPSARWTAGRRGSARTKACRTR”, “failed”; under “MVHDSALPFDALPMPPQGREGFEECPYLDSQWVADTNGQRMTGQGVDTRFDTPACVFWSYPEAPQATVMVRHMPSEEEAIRVVDWAAPIDTTEPAEEPDGWSGGRAGHEEGAVYAVQKGPVAVVVWSNQQQSLKAELMAKEAIARLGL”, “not failed”.
Regarding “MVHDTFMKMPEVRRRRQPTHVLVAGGNQGLGNMTAFLRAARTSTLFRYSVLCGANKQLYHEIASWQLPHIRPLPYINSPEEMNQLYDEADAVITKPGGVTISELLHKRIPIFTIDCLPGQERINWQYLRRNGLIYHLAEPGNGERKMIRLLTDDVEKNRFFRRVSDYFAGVEKTGLEHHHHHH”, the protein production entry is listed as “failed”.
“MVILEQTHLVKNKAVDNKKSMKYSIFQQALTIAVILLISKIIESFMPIPMPASVIGLVLLFIALCTGIVKLGQVETVGTALTNNIGFLFVPAGISVINSLPILKQSPILIILLIIISTLLLLICTGFSSQLLVTKSLFPSKEKNEETSHIGG”: the protein production result is listed as “failed”.
Under “MVINSTVWQCEATGKENLTYEEAVKSERAARKKMEQFKQSLRAPVLLVVEHAQQSAVNTLNMIVAKFLRKRYFIGEEVSVQAKKNATYTVLGVKLDKNMPEPLNGIYEDTDNLVYRLRPNKGDPSAELDLPFRQLRRSRMEFNLENLSMFIKSNVSRVDGLLRPKPEA” stands “failed”.
Regarding “MVKDKQKAIFSENLNSYIAKSEKTQLEIAKSIGVSPQTFNTWCKGIAIPRMGKVQALADYFNINKSDLIEDKKLNIDTVPIESGYTIPVLGRVAAGYGKEAVEEVIGQIEISPSMAAKGDYFGLLIKGDSMIPTLYDGDTVIVERTDDAESGDLVIALVNGSDATCKRLQKYAEGIALIPQNPVYEPMRFTESEIDTTPVKILGKVVEMRRKFLEHHHHHH”, the protein production entry is “not failed”.
With “MVKLELLKQSDASALLKFELNNKEWFESFIEARDDDFFDDNGIKEHVNFCLAEYKKGLLYPTLIKDEDGQILGRANLYNIDRVKNSGSIGYRIGEEFTSQGLATLATKELLEIGKNRYELSSINAVASTDNAASQKVLIKNGFKEVGFKPEFAFVDGEIIDCYEYRCLIQQLTPVM”, the protein production result was “failed”.
Take “MVKMIEQLKRSFAVAKKDMLIFYLKGPVIIMGLIFPFFLFLAFFIGRNLEKAQLFTALISMTAFFTSTAVGPTIIPWECRGRTFERLITAPVSLTTVLLGDLQASFYFGTAITFIISTVAIFILSIRPNLQIFLVATILAILTFSAMTILMSSYPPTDVPADIMMLSSLVKFSLLFISGIFVPLKDLPKYARWISYASPLTYYVDALRNSLGDGCLPLWIDFGMLALFGILFFLSGVAIHKKVLERRFT”: the protein production entry was “failed”.
Regarding “MVKMKKVEQLSSHLYLIDDFDLQHNERTGTYVLLGDDITLIETCAAPSLPYILDGLQQLHIDLNEVKNIIVTHVHLDHAGAAGLMMEKCPNATLYVHSRGARHMIDPTKLILGAKAVYKEDFDKLFDPILPIEEERVHIVQHGDTLQIAEDRILTFYDTPGHAKHHISIHDSLTNGIFTGDTIGIYYRELADLGVELYLPSTSPSQFQPDAMIASKNHIQSMNVDTIYFGHYGASSNVTEVYKQLEHWLPIFVHTGKEVFEKYNDFDEATKALQTILMDKISSHLIKLNVPSDHSVYNILHLDIEISAMGIIDYFTKLEKTNPPIS”, the protein production entry is “failed”.
